# In US10919943B2, “Mutant proteins enabling agrochemical control of plant gene expression” (The Regents of the University of California, priority 2016, dated 2021):
# Marks after values point to notes of the source that are not given here.
# T1: PYR1*^-MANDI (Arabidopsis thaliana, UniProt O49686, A160V/F108A/F159V/K59R/M158I/S122G/T162D/V81I/Y58H)
# T1 construct: expressed in transfected cells; host or cells: S. cerevisiae strain MAV99 (selection)
# T1 sequence (O49686 1-191 Y58H/K59R/V81I/F108A/S122G/M158I/F159V/A160V/T162D): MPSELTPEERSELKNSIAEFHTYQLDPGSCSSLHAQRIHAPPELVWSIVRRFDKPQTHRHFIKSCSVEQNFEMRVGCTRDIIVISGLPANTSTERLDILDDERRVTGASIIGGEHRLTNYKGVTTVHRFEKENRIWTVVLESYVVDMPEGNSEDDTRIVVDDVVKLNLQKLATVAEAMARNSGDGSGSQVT
# B1: HAB1^!-3: HAB1^!-2 with the D204A mutation, catalytically inactive (protein)
# chain: MTPAVAMTLSLAANTMCESSPVEITQLKNVTDAADLLSDSENQSFCNGGTECTMEDVSELEEVGEQDLLKTLSDTRSGSSNVFDEDDVLSVVEDNSAVISEGLLVVDAGSELSLSNTAMEIDNGRVLATAIIVGESSIEQVPTAEVLIAGVNQDTNTSEVVIRLPDENSNHLVKGRSVYELDCIPLWGTVSIQGNRSEMEAAFAVSPHFLKLPIKMLMGDHEGMSPSLTHLTGHFFGVYDGHGGHKVADYCRDRLHFALAEEIERIKDELCKRNTGEGRQVQWDKVFTSCFLTVDGEIEGKIGRAVVGSSDKVLEAVASETVGSTAVVALVCSSHIVVSNCGDSRAVLFRGKEAMPLSVDHKPDREDEYARIENAGGKVIQWQGARVFGRLAMSRSIGDRYLKPYVIPEPEVTFMPRSREDECLILASDGLWDVMNNQEVCEIARRRILMWHKKNGAPPLAERGKGIDPACQAAADYLSMLALQKGSKDNISIIVIDLKAQAKFKTRT
# modifications: left off: small tags and cut ends
# B2: S322E (protein, listed as Arabidopsis thaliana)
# chain: MEEMTPAVAMTLSLAANTMCESSPVEITQLKNVTDAADLLSDSENQSFCNGGTECTMEDVSELEEVGEQDLLKTLSDTRSGSSNVFDEDDVLSVVEDNSAVISEGLLVVDAGSELSLSNTAMEIDNGRVLATAIIVGESSIEQVPTAEVLIAGVNQDTNTSEVVIRLPDENSNHLVKGRSVYELDCIPLWGTVSIQGNRSEMEDAFAVSPHFLKLPIKMLMGDHEGMSPSLTHLTGHFFGVYDGHGGHKVADYCRDRLHFALAEEIERIKDELCKRNTGEGRQVQWDKVFTSCFLTVDGEIEGKIGRAVVGSSDKVLEAVAEETVGSTAVVALVCSSHIVVSNCGDSRAVLFRGKEAMPLSVDHKPDREDEYARIENAGGKVIQWQGARVFGVLAMSRSIGDRYLKPYVIPEPEVTFMPRSREDECLILASDGLWDVMNNQEVCEIARRRILMWHKKNGAPPLAERGKGIDPACQAAADYLSMLALQKGSKDNISIIVIDLKAQRKFKTRT
# B3: R199A (protein, listed as Arabidopsis thaliana)
# chain: MEEMTPAVAMTLSLAANTMCESSPVEITQLKNVTDAADLLSDSENQSFCNGGTECTMEDVSELEEVGEQDLLKTLSDTRSGSSNVFDEDDVLSVVEDNSAVISEGLLVVDAGSELSLSNTAMEIDNGRVLATAIIVGESSIEQVPTAEVLIAGVNQDTNTSEVVIRLPDENSNHLVKGRSVYELDCIPLWGTVSIQGNASEMEDAFAVSPHFLKLPIKMLMGDHEGMSPSLTHLTGHFFGVYDGHGGHKVADYCRDRLHFALAEEIERIKDELCKRNTGEGRQVQWDKVFTSCFLTVDGEIEGKIGRAVVGSSDKVLEAVASETVGSTAVVALVCSSHIVVSNCGDSRAVLFRGKEAMPLSVDHKPDREDEYARIENAGGKVIQWQGARVFGVLAMSRSIGDRYLKPYVIPEPEVTFMPRSREDECLILASDGLWDVMNNQEVCEIARRRILMWHKKNGAPPLAERGKGIDPACQAAADYLSMLALQKGSKDNISIIVIDLKAQRKFKTRT
# B4: T162D: PYR1 mutant T162D, denoted PYR1^! (protein, UniProt O49686 1-191, looked up, variant T162D)
# Abscisic acid receptor PYR1: MPSELTPEERSELKNSIAEFHTYQLDPGSCSSLHAQRIHAPPELVWSIVRRFDKPQTYKHFIKSCSVEQNFEMRVGCTRDVIVISGLPANTSTERLDILDDERRVTGFSIIGGEHRLTNYKSVTTVHRFEKENRIWTVVLESYVVDMPEGNSEDDTRMFADDVVKLNLQKLATVAEAMARNSGDGSGSQVT
# Experiments:
# [1] = Phosphatase activity of recombinant GST-HAB1 proteins (4-methylumbeliferyl phosphate); type: biochemical; settings: 1 μg protein, percent control (GST-HAB1); FIG. 7
# Text: (§1) In the presence of ABA, wild type PYR1 binds to HAB1 and docks into its active site, which inhibits its enzymatic activity by blocking access of substrates. To characterize the orthogonal PYR1^! and HAB1^! interaction biochemically, we produced recombinant forms of each protein in E. coli, along with the wild type form, and tested the wild type and orthogonal mutant for their ability to inhibit HAB1 and HAB1^! activities in vitro. We cloned PYR1^! into pET28 to generate 6×-His tagged receptor and cloned HAB1^! into pGEX-4T-1 to create a GST-fusion protein. The previously constructed (S.-Y. Park et al., 2009) wild type 6×-His-PYR1 and GST-HAB1 constructs were used for producing recombinant wild type proteins. The 6×-His-tagged receptors and GST-tagged PP2Cs were expressed and purified as previously described. […] The plates were read using a Victor 2 plate reader (PerkinElmer) (355 nm excitation, 460 nm emission) and assays run in triplicate. The PP2C activity values reported are expressed as percent control values, which were calculated by including the carrier solvent (1% DMSO) and the specific receptor assayed, but no ligand. […]
# To characterize HAB1^!-3 and HAB1* in vitro, we cloned them into pGEX-4T-1 to create GST-fusion proteins. […] The PP2C activity values reported are expressed as percent control (GST-HAB1) from triplicate measurements.
# PYR1*^-MANDI = biological target: T1, PYR1*^-MANDI; test: Yeast two hybrid, mandipropamid-induced interaction of HAB1 variants with pBD-PYR1*^-MANDI; type: cell-based; settings: for effect of mutation on mandipropamid responsiveness of HAB1^!-3: selection on 500 nM mandipropamid
# Text: To investigate the effects of overexpressing HAB1^!-2 in Arabidopsis, we used Agrobacterium mediated transformation to generate 35S::GFP-HAB1^!-2 transgenic plants. HAB1^!-2 was cloned from pACT-HAB1^!-2 into pEGAD, a binary vector suitable for plant transformation, generating a 35S-driven GFP-HAB1^!-2 fusion protein. The clone was transformed into Agrobacterium and the floral dip method used to transform Arabidopsis. After selection of T0 seed on soil containing glufosinate, several T1 seedlings were identified. […] As an alternate strategy, we eliminated HAB1's catalytic activity by introducing a mutation in a conserved metal-ion binding residue (D204), which is homologous to D131A mutation in ABI1, previously shown to eliminate phosphatase activity without disrupting wild type receptor-ABI1 interactions (Liang et al., 2011). We used QuickChange mutagenesis to introduce the D204A mutation into pACT-HAB1^!-2, generating pACT-HAB1^!-3. When tested for mandipropamid induced interactions with pBD-PYR1*^-MANDI, HAB1^!-3 is ˜10-fold less sensitive to mandipropamid relative to HAB1^!-2 (FIG. 5).
# D204 is located within HAB1's catalytic active site and binds to one of 3 catalytic Mg^++ ions that participate in catalysis. […] It is likely that disruptions to active site structure introduced by D204A destabilize the PYR1*^-MANDI/HAB1^!-3 interaction relative to HAB1^!-2. We reasoned that suppressor mutations in other HAB1 interface or active site residues could restore sensitivity by strengthening interactions with PYR1*^-MANDI. To identify such suppressors, we mutagenized the pACT-HAB1^!-3 template using NNK mutagenesis in 28 residues located with at the PYR1 binding interface. The residues targeted were: R199, S200, E201, E203, D243, G244, H245, G246, G247, S322, E323, T324, D346, K365, K381, 1383, Q384, W385, Q386, R389, F391, G392, Y404, S431, G433, D436, D492 and N394. The pACT-HAB1^!-3 template was mutagenized in 28 separate NNK mutagenesis reactions using the QuickChange protocol. Mini-libraries, each containing ˜1000 clones, were made for each NNK reaction and plasmid DNA for the 28 mutations prepared, pooled, and then transformed into S. cerevisiae strain MAV99 co-transformed with pBD-PYR1*^-MANDI, and then plated onto selective SD(-Leu,-Trp,-Ura) agar media supplemented with 500 nM mandipropamid. […] S322D and R199A were combined using the Lightning Multi-site Mutagenesis™ (Agilent, USA) method, and the resultant pentuple mutant tested in combination with pBD-PYR1*^-MANDI for sensitivity to mandipropamid using β-galactosidase assays.
# HAB1 [2] = test: Yeast two hybrid of pBD-PYR1 site saturation mutants with pACT-HAB1 on 10 μM ABA, β-galactosidase staining; type: cell-based, Arabidopsis; parameters: key: x: Mutations in PYR1 that disrupt ABA-induced binding to PYR1 to HAB1; settings: S. cerevisiae Y190, 10 μM ABA; dead = lack of visible staining in comparison to wild type control
# Method in brief: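 Binding was read by β-galactosidase staining of chloroform-lysed colonies after 2 days at 30° C on SD (-Leu, -Trp) plates containing 10 μM (+)-ABA. Yeast strain Y190 carried the BD-PYR1 single-substitution mutants plus the AD-HAB1 fusion. Absence of staining versus the wild-type control defined "dead" mutants.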
# [3] = biological target: T2, HAB1^! (Arabidopsis thaliana); test: In vitro PP2C assay, ABA-promoted inhibition of GST-HAB1^! by receptor; type: biochemical; settings: in response to ABA; 100 nM receptor, 50 nM PP2C; FIG. 2
# T2 construct: 6xHis (N); made in house; host or cells: E. coli BL21 [DE3]pLysS
# Text: as §1, with “described. Briefly, the proteins were expressed in BL21 [DE3]pLysS E. coli host cells at 18° C. overnight.” for “described.”
# HAB1 [4] = test: In vitro PP2C assay, ligand-promoted inhibition of GST-HAB1 by receptor; type: biochemical, Arabidopsis; settings: ABA-promoted; FIG. 2
# Text: as §1, with “described. Briefly, the proteins were expressed in BL21 [DE3]pLysS E. coli host cells at 18° C. overnight. Fusion proteins were purified from sonicated lysates using Ni-NTA agarose (Qiagen, USA) or Pierce™ Glutathione Agarose (Thermo Scientific) according to the manufacturer's instructions. PP2C assays were conducted in 96-well polystyrene flat-bottom microtitre plates (Greiner).” for “described.”
# According to our current understanding, in order for ABA signaling to be initiated in vivo, PP2C activity must be inhibited to enable accumulation of active SnRK2 kinases. […] 4-methylumbeliferyl phosphate was added (1 mM final concentration) was added to the reactions after 30 minutes equilibration and plates were read by fluorimetry. The PP2C activity values reported are expressed as percent control values, which was calculated by including the carrier solvent (1% DMSO) and the specific receptor assayed, but no ligand.
molecule,measurement,setting,value
B1,catalytic activity in vitro,[1],Neither HAB1^!-3 or HAB1* display detectable catalytic activity
same,fold less sensitive to mandipropamid relative to HAB1^!-2,PYR1*^-MANDI; FIG. 5,~10 fold
B2,effect of mutation on mandipropamid responsiveness of HAB1^!-3,PYR1*^-MANDI,enhance responsiveness of HAB1^!-3
B3,effect of mutation on mandipropamid responsiveness of HAB1^!-3,PYR1*^-MANDI,enhance responsiveness of HAB1^!-3
B4,Mutations in PYR1 that disrupt ABA-induced binding to PYR1 to HAB1,HAB1 [2],x
same,inhibition of HAB1^! phosphatase activity,[3],does not strongly inhibit
same,inhibition of HAB1 phosphatase activity,HAB1 [4],unable to inhibit
